One block for each molecule: values may come before it.
How the values were obtained:
XuaJ = XuaJ (Ruminiclostridium cellulolyticum, UniProt B8I0P3); assay: Esterase activity of XuaJ; format: biochemical; conditions: 37 °C, 25 mM phosphate buffer pH 7, XuaJ 0.01 µM for 1-naphthyl acetate
Experimental: (§1) Esterase activity was tested using 1-Naphthyl acetate. Release of 1-Naphthol was monitored at 320 nm during 5 min at 37 °C in 25 mM phosphate buffer pH 7, with substrate final concentration ranging from 110 µM and 5.36 mM, and with XuaH (0.1 µM) or XuaJ (0.01 µM). Concentration of released 1-Naphthol during the first minute of the assay was determined based on 1-Naphthol standard curve.

XuaH = XuaH (Ruminiclostridium cellulolyticum, UniProt B8I0P1); assay: Esterase activity of XuaH; format: biochemical; conditions: 37 °C, 25 mM phosphate buffer pH 7, XuaH 0.1 µM for 1-naphthyl acetate
Experimental: as §1

XuaD = XuaD (Ruminiclostridium cellulolyticum, UniProt B8I0N6); assay: Enzyme activity of XuaD on AXOS (HPAEC-PAD); format: biochemical
Experimental: (§2) XuaD, E, F, G (0.01 to 1 µM) were tested with different AXOS and/or XOS at 1 mM with incubation times varying from 5 min to 24 h. Enzymes (10 nM) were incubated at 37 °C for 5 min, kinetic parameters of XuaD were determined with both A^2,3XX and A^2XX, with sugar concentration varying from 0.05 to 8 mM, and XuaE with A^2,3XX with sugar concentration varying from 0.05 to 1 mM (at least 9 concentration point). Substrates and released products were quantified by high performance anion exchange chromatography coupled with pulsed amperometric detection on an ICS-3000 using a PA1 column (Thermo Scientific). Sugars were eluted with the buffers 0.1 M NaOH and 0.5 M sodium acetate + 0.1 M NaOH as the eluants A and B, respectively, using the multistep procedure as follows: isochratic separation (5 min, 95% A + 5% B), separation gradient (8 min, 10–37% B), column wash (2 min, 99% B), and subsequent column equilibration (2.5 min, 95% A + 5% B).

XuaA [1] = biological target: T1, XuaA (Ruminiclostridium cellulolyticum, UniProt B8I0N3); assay: Thermal shift assay (TSA) of XuaA with carbohydrate ligands; format: binding; conditions: XuaA 8 µM, ligand 1 mM or 0.1 mM (X4, X5, X6), 25 mM phosphate buffer pH 7; mean of at least 2 experiments
T1 sequence (B8I0N3 entry or part of it): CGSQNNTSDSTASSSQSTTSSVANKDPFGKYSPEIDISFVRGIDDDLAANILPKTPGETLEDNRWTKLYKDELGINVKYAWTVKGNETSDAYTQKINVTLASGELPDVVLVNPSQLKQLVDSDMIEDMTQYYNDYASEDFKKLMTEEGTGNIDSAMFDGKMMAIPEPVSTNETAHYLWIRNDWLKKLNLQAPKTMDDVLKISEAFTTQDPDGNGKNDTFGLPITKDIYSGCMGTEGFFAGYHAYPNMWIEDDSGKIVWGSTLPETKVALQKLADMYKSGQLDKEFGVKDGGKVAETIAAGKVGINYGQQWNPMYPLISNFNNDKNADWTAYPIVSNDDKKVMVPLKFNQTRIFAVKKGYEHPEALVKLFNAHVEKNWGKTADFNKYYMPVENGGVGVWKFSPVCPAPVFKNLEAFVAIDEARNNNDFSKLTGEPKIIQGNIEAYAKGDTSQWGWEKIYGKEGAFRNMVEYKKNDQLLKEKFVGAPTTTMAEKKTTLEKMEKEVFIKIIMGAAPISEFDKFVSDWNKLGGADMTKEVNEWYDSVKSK
Experimental: (§3) XOS and AXOS were purchased from Megazyme: A^3X (ref O-A^3X), A^2XX (ref O-A^2XX), A^2,3XX (ref O-A^2,3XX), XA^3XX (ref O-XA^3XX), XA^2,3XX (ref O-XA^2,3XX), XAXXMIX (ref O-XAXXMIX), X2 to X6 (ref O-XBI, O-XTR, O-XTE, O-XPE, O-XHE, respectively) (Fig. 3) (Megazyme). For TSA experiments, monosaccharides, XOS and AXOS were tested at a final concentration of 1 mM or 0.1 mM (for X4, X5, and X6). Experiments were performed with XuaA (8 µM) in 25 mM phosphate buffer pH 7 and SYPRO orange (1/500) (Sigma-Aldrich). Melting curves were monitored from 10 to 90 °C with 0.5 °C increment every 30 s, on CFX96 touch real-time PCR detection system (Bio-Rad, France) and analyzed using the Bio-Rad CFX Maestro 1.1 software.

XuaA [2] = biological target: T1, XuaA; assay: Isothermal titration calorimetry (ITC) of XuaA with ligands; format: binding; conditions: 25 °C, 25 mM phosphate buffer pH 7.0
Experimental: as §3
A MicroCal PEAQ-ITC (Malvern, Malvern, UK) was used to determine thermodynamic parameters of the binding at 25 °C in 25 mM phosphate buffer, pH 7.0. The ligands (50–2000 µM) were injected (one injection with 0.4 µL followed by 18 injections of 2 µL) in the cell containing XuaA (5–50 µM) in the same buffer. At least one duplicate was performed.

XuaE = XuaE (Ruminiclostridium cellulolyticum, UniProt B8I0N8); assay: Enzyme activity of XuaE on AXOS (HPAEC-PAD); format: biochemical; conditions: HPAEC-PAD
Experimental: as §2

XuaG = assay: Enzyme activity of XuaG on AXOS and XOS (HPAEC-PAD); format: biochemical, Ruminiclostridium cellulolyticum; conditions: substrate 1 mM, 37 °C
Experimental: as §2

XuaF = assay: Enzyme activity of XuaF on AXOS and XOS (HPAEC-PAD); format: biochemical, Ruminiclostridium cellulolyticum; conditions: substrate 1 mM, 37 °C
Experimental: as §2

[3] = substrate: OC[C@@H]1O[C@@H](O[C@H]2[C@H](O[C@@H]3CO[C@@H](O[C@@H]4COC(O)[C@H](O)[C@H]4O)[C@H](O)[C@H]3O)OC[C@@H](O)[C@@H]2O)[C@H](O)[C@H]1O; assay: Enzyme activity of XuaD on AXOS (HPAEC-PAD); format: biochemical, Ruminiclostridium cellulolyticum; conditions: other: 37 °C, substrate 0.05 to 8 mM
Experimental: as §2

[4] = substrate: OC[C@@H]1O[C@@H](O[C@@H]2[C@@H](O[C@@H]3O[C@@H](CO)[C@H](O)[C@H]3O)[C@H](O[C@@H]3CO[C@@H](O[C@@H]4COC(O)[C@H](O)[C@H]4O)[C@H](O)[C@H]3O)OC[C@H]2O)[C@H](O)[C@H]1O; assay: Enzyme activity of XuaD on AXOS (HPAEC-PAD); format: biochemical, Ruminiclostridium cellulolyticum; conditions: other: 37 °C, substrate 0.05 to 8 mM
Experimental: as §2

[5] = substrate: CC(=O)Oc1cccc2ccccc12; assay: Esterase activity of XuaH; format: biochemical, Ruminiclostridium cellulolyticum; conditions: other: 37 °C, pH 7, substrate 110 µM to 5.36 mM
Experimental: as §1

[6] = substrate: OC[C@@H]1O[C@@H](O[C@@H]2[C@@H](O[C@@H]3O[C@@H](CO)[C@H](O)[C@H]3O)[C@H](O[C@@H]3CO[C@@H](O[C@@H]4COC(O)[C@H](O)[C@H]4O)[C@H](O)[C@H]3O)OC[C@H]2O)[C@H](O)[C@H]1O; assay: Enzyme activity of XuaE on AXOS (HPAEC-PAD); format: biochemical, Ruminiclostridium cellulolyticum; conditions: other: 37 °C, substrate 0.05 to 1 mM
Experimental: as §2

[7] = substrate: CC(=O)Oc1cccc2ccccc12; assay: Esterase activity of XuaJ; format: biochemical, Ruminiclostridium cellulolyticum; conditions: other: 37 °C, pH 7, substrate 110 µM to 5.36 mM
Experimental: as §1

Specific activity (IU) of XuaJ (XuaJ): IU: 21130.4 ± 676.4 IU/µmol of enzyme
Specific activity (IU) of XuaH (XuaH): IU: 3504.6 ± 18.9 IU/µmol of enzyme
Molecule: CC(=O)Oc1cccc2ccccc12 [1-Naphthyl acetate]

Products released by XuaD (XuaD; HPAEC-PAD): Products: Ara, X4
Specific activity (IU) of XuaD (XuaD; substrate 1 mM, 37 °C): IU: 1218.9 ± 38.5 IU/µmol of enzyme
TSA ∆T (XuaA [1]): 11.0 °C
ITC -T∆S (XuaA [2]): 11.6 ± 1.2 kcal/mol
ITC N (sites) (XuaA [2]): 0.652 ± 2.83e-3 sites
Kd (XuaA [2]): 40.4 ± 9.3 nM
Products released by XuaE (XuaE): Products: Ara, X4
Specific activity (IU) of XuaG (XuaG): IU: 21.2 ± 0.2 IU/µmol of enzyme
Specific activity (IU) of XuaF (XuaF): IU: 166.7 ± 12.8 IU/µmol of enzyme
Molecule: OC[C@@H]1O[C@@H](O[C@@H]2[C@@H](O)[C@H](O[C@@H]3CO[C@@H](O[C@@H]4COC(O)[C@H](O)[C@H]4O)[C@H](O)[C@H]3O)OC[C@H]2O[C@@H]2OC[C@@H](O)[C@H](O)[C@H]2O)[C@H](O)[C@H]1O (some centres unmarked) [XA^3XX]

B1: XuaD (Ruminiclostridium cellulolyticum H10) (protein)
chain: MVKMILNADIKKGKINKNIYGHFSEHLGRCIYEGLWVGEDSEIPNINGFRTDVVEALKKMKIPVLRWPGGCFADEYHWVDGIGPKENRPCMVNTHWGGVVENNHFGTHEFLELCEMLGAEPYICGNVGSGTVHEMQQWVEYMTFDGKSPMADLRRANGKEEPWRVKYFGVGNENWGCGGNMTAEFYADQYKRYATYVRNFGDNKIYKIAGGASVDDYHWTEVLMREAGKQMDGLSVHYYTRISKDWSEQGSATEFDENHWFSVMQNALFTEELVVRHSNIMDKYDPEKKVGMIVDEWGTWFAVEPGTNPGFLYQQNTMRDALVAGIHLNIFNNHCDRVQMANIAQMVNVLQAVILTEGKKMLLTPTYHVFDMYKVHQGAELLSLDFESPEYAYNGEKVPQLSASSSVDSEGKIHVTICNLNPSADVNIDIDLRGVKSKSSTGKIITSNAMNAKNTFEETTNVTIKNFEDINLENNHISGKIPSKSVVLLEIV
Km [3]: Km 1.4 ± 0.3 mM
kcat [3]: kcat 3408.0 ± 356.6 min^−1
kcat/Km [3]: kcat/Km 2411.9 ± 303.3 min^−1 mM^−1
Km [4]: Km 1.8 ± 0.2 mM
kcat [4]: kcat 4191.3 ± 117.3 min^−1
kcat/Km [4]: kcat/Km 2388.2 ± 182.9 min^−1 mM^−1

B2: XuaH (Ruminiclostridium cellulolyticum H10) (protein)
chain: MAIFQANFFAKTMKRSICFNALIPNDKYQAPDQEIKDEPKGPMKSIYLLHGYSGNHTDWLTWTKIQELSLKYNIAVFMPSGENFFYVDDEEVGAYYGELIGNELVDYTRSTFHLSDKREDTFIGGLSMGGYGAIRNGLKYSERFGRIIALSSALITNQIAGITPDFKGPVADYPYYRRVFGDLDRLLGGDKDPEALIRSLKEKNADIPKIYMACGTEDFLINENRELHEFLVSEKVEHTYIEDSGVHDWKFWNEYIDKGLAWATE
Km [5]: Km: 3.5 ± 1.1 mM
kcat [5]: kcat: 5435.7 ± 846.4 min^−1
kcat/Km [5]: kcat/Km: 1628.1 ± 295.7 min^−1 mM^−1

B3: XuaE (Ruminiclostridium cellulolyticum H10) (protein)
chain: MKIQNPIIWADMPDPDIIRVGDIYYMVSTTMFVMPGAPILKSKDLYHWELVSYVFNTIEDNDIYQLKNGKTAYGKGQWATSLRFFNGLYYACFVCHDMQKTYIYYTDDIEKSGWERYVINNVFHDMSFLFDNNRSYLIYGNGDIKIVELKDDLSGIKDGGVNQLLFSTPSENIMLRCEGCRAYKINGYYYLLFIEWPNDGNSRRRVVCYRSKDLLGEYDRKILLDDDMEYQNQGIAQGAIIDTPEGEWYSILFQDHGAVGRIPYLLPVSWEDDWPNLGVNEKVPESFEIPFEAYDTKPLIVSDSFNHNENKLDLRWQWNHNPEEDCWSFTEHPGYLRLRTQSLATDILTARNTLTQRTSGPQCAFSVELKTEGMKAGDYAGLVALQGNYGAIGIRADENNLKRIIVSKKGSDGRQIEEEYRLFADSRILIKIEFDFRNSSDIAKFYYSQDGIGWIKLGSDLHMTYTLDLFIGYRIGIFYYSQKAAGGFADFRNFSYESRQ
Km [6]: Km 0.1 ± 0.003 mM
kcat [6]: kcat 2253.5 ± 142.1 min^−1
kcat/Km [6]: kcat/Km 23137.8 ± 1355.0 min^−1 mM^−1

B4: XuaJ (Ruminiclostridium cellulolyticum H10) (protein)
chain: MGIILNSNRPKIRLPRIISDGMVLQRNTDVKIWGWASPGEAVTVRFIGKAYHAFADDSGEWFVRLEQAKAGGPYDMYIETEESLEKITIKNILMGDVWLCSGQSNMEMKMDSVKDTYPDEIVHSCNDYIRHFLVPVKYDFEKPQTDLEAGIWEAANPESILDFTATGYFFALKLFEKYNIPIGLINASLGGSPAEAWLSENALREFPEHYESAKQLSNRDYLDKVLREDQESAEAWYTALNQNDEGLKSNDIPFHDTEYDAPFWQNIKVPSYWEDEGVGNFNGVVWFRKEIDIPSTLADKPARLVLGNIVDEDTAYINGIEVGTTPNQYITRKYSIQEGLLKEGKNTIVLRVVNTAGKGGFYKDKPYQLEIGDNIIELSGEWQYMIGAKSSPMPAPAFVQWRPLGLYNGMIAPVTSYSIKGFIWYQGESNTKNPGEYENLLKALIADWRQKWNMGNLPFLYVQLPNFMEASEIPMESSWAELREAQRRTLSVPCTGMAVAIDLGEWNDIHPVNKKDVGFRLALAAMKTAYRDKTIVAYGPMYQSGKIDGNRIILSFTDTGSGLTVKNGDRPEAFAIAGADRTFVRADAEIIGDSVAVWSEKVSHPVYVKYAWADNPADANLYNLEGLPASPFTTE
Km [7]: Km: 0.2 ± 0.02 mM
kcat [7]: kcat: 21380.0 ± 440.0 min^-1
kcat/Km [7]: kcat/Km: 88703.9 ± 7849.6 min^-1 mM^-1
